According to article PMC8074105, “Bacillus subtilis PcrA Helicase Removes Trafficking Barriers” (Cells, 2021):

Columns and labels:
PcrA [1] = target: T1, PcrA (Bacillus subtilis, UniProt O34580 1-739); assay: EMSA; 2.5 mM ATPgS, 3 mM Mg2+; four complexes; 20 mM Tris-HCl pH 7.5, 50 mM NaCl, 3 mM MgCl2, 4 mM DTT, 0.05 mg/mL BSA, 5% glycerol, 2.5 mM ATPgS, 0.1 nM 32P-labelled nucleic acid, 15 min, 37 C; conditions: protein: recombinant; tags: His6 removed (TAGZyme); label: 32P
T1 sequence: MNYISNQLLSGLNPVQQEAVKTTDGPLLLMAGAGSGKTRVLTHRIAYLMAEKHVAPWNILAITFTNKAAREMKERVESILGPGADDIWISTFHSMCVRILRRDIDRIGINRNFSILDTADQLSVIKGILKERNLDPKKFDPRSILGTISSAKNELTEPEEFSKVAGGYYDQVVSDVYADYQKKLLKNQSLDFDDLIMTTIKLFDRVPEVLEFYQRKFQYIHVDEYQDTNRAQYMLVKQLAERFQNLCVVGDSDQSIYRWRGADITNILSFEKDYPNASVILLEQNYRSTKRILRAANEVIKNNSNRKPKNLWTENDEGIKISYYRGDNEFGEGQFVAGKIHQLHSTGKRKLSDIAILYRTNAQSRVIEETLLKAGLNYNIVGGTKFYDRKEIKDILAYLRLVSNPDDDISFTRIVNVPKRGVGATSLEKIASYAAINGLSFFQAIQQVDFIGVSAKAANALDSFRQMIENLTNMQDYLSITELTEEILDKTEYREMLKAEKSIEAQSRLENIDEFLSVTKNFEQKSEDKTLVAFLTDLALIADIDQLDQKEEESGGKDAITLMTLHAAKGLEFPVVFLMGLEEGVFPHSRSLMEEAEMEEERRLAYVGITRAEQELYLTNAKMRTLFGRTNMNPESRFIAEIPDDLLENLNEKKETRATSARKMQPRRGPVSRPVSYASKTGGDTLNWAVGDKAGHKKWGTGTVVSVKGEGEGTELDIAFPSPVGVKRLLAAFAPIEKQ

[2] = substrate: Nc1ncnc2c1ncn2[C@@H]1O[C@H](COP(=O)(O)OP(=O)(O)OP(=O)(O)O)[C@@H](O)[C@H]1O; assay: NADH-coupled (pyruvate kinase / lactate dehydrogenase) spectrophotometric ATPase assay, Michaelis-Menten fit; type: biochemical, Bacillus subtilis; conditions: 15 nM PcrA, ATP 0.06 to 10 mM, ssDNA-dependent assay (circular pGEM3 Zf(+) ssDNA, 10 µM in nt, inferred from context), 10 mM Mg acetate, 80 mM NaCl, pH 7.5, 37 °C
PcrA [3] = target: T1, PcrA; assay: EMSA; 2.5 mM ATPgS, 3 mM Mg2+; apparent; unstable complexes; 20 mM Tris-HCl pH 7.5, 50 mM NaCl, 3 mM MgCl2, 4 mM DTT, 0.05 mg/mL BSA, 5% glycerol, 2.5 mM ATPgS, 0.1 nM 32P-labelled nucleic acid, 15 min, 37 C; conditions: protein: recombinant; tags: His6 removed (TAGZyme); label: 32P

## GCTCTGATGCCGCATAGTTAAGCCAGCCCCGACACCCG (ssDNA) [38-nt ssDNA (SM44D)]
PcrA [1]
  binding result: binds

B1: PcrA (Bacillus subtilis subsp. subtilis str. 168) (protein)
chain: MNYISNQLLSGLNPVQQEAVKTTDGPLLLMAGAGSGKTRVLTHRIAYLMAEKHVAPWNILAITFTNKAAREMKERVESILGPGADDIWISTFHSMCVRILRRDIDRIGINRNFSILDTADQLSVIKGILKERNLDPKKFDPRSILGTISSAKNELTEPEEFSKVAGGYYDQVVSDVYADYQKKLLKNQSLDFDDLIMTTIKLFDRVPEVLEFYQRKFQYIHVDEYQDTNRAQYMLVKQLAERFQNLCVVGDSDQSIYRWRGADITNILSFEKDYPNASVILLEQNYRSTKRILRAANEVIKNNSNRKPKNLWTENDEGIKISYYRGDNEFGEGQFVAGKIHQLHSTGKRKLSDIAILYRTNAQSRVIEETLLKAGLNYNIVGGTKFYDRKEIKDILAYLRLVSNPDDDISFTRIVNVPKRGVGATSLEKIASYAAINGLSFFQAIQQVDFIGVSAKAANALDSFRQMIENLTNMQDYLSITELTEEILDKTEYREMLKAEKSIEAQSRLENIDEFLSVTKNFEQKSEDKTLVAFLTDLALIADIDQLDQKEEESGGKDAITLMTLHAAKGLEFPVVFLMGLEEGVFPHSRSLMEEAEMEEERRLAYVGITRAEQELYLTNAKMRTLFGRTNMNPESRFIAEIPDDLLENLNEKKETRATSARKMQPRRGPVSRPVSYASKTGGDTLNWAVGDKAGHKKWGTGTVVSVKGEGEGTELDIAFPSPVGVKRLLAAFAPIEKQ
notes: full-length, His6-tagged from plasmid pCB1229 (pQE1) in E. coli M15 (pREP4), His-tag removed with TAGZyme; amounts as monomers
[2]
  Km: 1500 ± 300 µM

## GCUCUGAUGCCGCAUAGUUAAGCCAGCCCCGACACCCG (ssRNA) [38-nt RNA (SM44R)]
PcrA [3]
  Kd: ~35 nM
